B1: CPEB3 Ribozyme (parent)
chain: UAACAGGGGGCCACAGCAGAAGCGUUCACGUCGCAGCCCCUGUCAGAUUCUGGUGAAUCUGCGAAUUCUGCUGUAUAUCUC

Variants of: B1
Experiment: self-cleavage, relative activity (ratio to wild type); higher = more cleavage; in vitro, sequencing
Outline: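 Relative activity compares each variant's cleaved/total read fraction with that of the unmutated ribozyme. To get these fractions, barcoded CPEB3 ribozyme libraries from rounds of error-prone PCR were transcribed with T7 RNA polymerase for 5 hours at 37°C and then given 15 min of DNase I treatment before EDTA was added. The RNAs were reverse transcribed with template switching and sequenced on Illumina, and DNA sequencing linked barcodes to variants. A minimum of 5 reads applied, and three batches were averaged.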

| Variant | self-cleavage |
| --- | --- |
| UAACAGGGGGCCACAGCAGAAGCGUUCGCGUCGCAGCCCCUGUCAGAUUCUGGUGAAUCUGCGAAUUCUGCUGUAUGUCUC [A28G A77G] | 0.72 |
| UAACAGGGGGCCACAGCAGAAGCGUUCGCGUCGCAGCCCCUGUCAGAUUCUGGUGAAUCUGCGAAUUCUGCUGUAUCUCUC [A28G A77C] | 0.58 |
| UAACAGGGGGCCACAGCAGAAGCGUUCGCGUCGCAGCCCCUGUCAGAUUCUGGUGAAUCUGCGAAUUCUGCUGUAUUUCUC [A28G A77U] | 0.79 |
| UAACAGGGGGCCACAGCAGAAGCGUUCGCGUCGCAGCCCCUGUCAGAUUCUGGUGAAUCUGCGGAUUCUGCUGUAUAUCUC [A28G A64G] | 0.46 |
| UAACAGGGGGCCACAGCAGAAGCGUUCGCGUCGCAGCCCCUGUCAGAUUCUGGUGAAUCUGCGUAUUCUGCUGUAUAUCUC [A28G A64U] | 0.24 |
| UAACAGGGGGCCACAGCAGAAGCGUUCGCGUCGCAGCCCCUGUCAGAUUCUGGUGAAUCUGCGAGUUCUGCUGUAUAUCUC [A28G A65G] | 0.33 |
| UAACAGGGGGCCACAGCAGAAGCGUUCGCGUCGCAGCCCCUGUCAGAUUCUGGUGAAUCUGCGACUUCUGCUGUAUAUCUC [A28G A65C] | 0.21 |
| UAACAGGGGGCCACAGCAGAAGCGUUCGCGUCGCAGCCCCUGUCAGAUUCUGGUGAAUCUGCGAUUUCUGCUGUAUAUCUC [A28G A65U] | 0.15 |
| UAACAGGGGGCCACAGCAGAAGCGUUCCCGUCGCAGCCCCUGUCAGAUUCUGGUGAAUCUGCGAAUUCUGCGGUAUAUCUC [A28C U72G] | 0.4 |
| UAACAGGGGGCCACAGCAGAAGCGUUCGCGUCGCAGCCCCUGUCCGAUUCUGGUGAAUCUGCGAAUUCUGCUGUAUAUCUC [A28G A45C] | 0.33 |
| UAACAGGGGGCCACAGCAGAAGCGUUCGCGUCGCAGCCCCUGUCGGAUUCUGGUGAAUCUGCGAAUUCUGCUGUAUAUCUC [A28G A45G] | 0.4 |
| UAACAGGGGGCCACAGCAGAAGCGUUCGCGUCGCAGCCCCUGUCUGAUUCUGGUGAAUCUGCGAAUUCUGCUGUAUAUCUC [A28G A45U] | 0.31 |
| UAACAGGGGGCCACAGCAGAAGCGUUCGCGUCGCAGCCCCUGUCAGAUUCUGGUGGAUCUGCGAAUUCUGCUGUAUAUCUC [A28G A56G] | 0.43 |
| UAACAGGGGGCCACAGCAGAAGCGUUCGCGUCGCAGCCCCUGUCAGAUUCUGGUGCAUCUGCGAAUUCUGCUGUAUAUCUC [A28G A56C] | 0.31 |
| UAACAGGGGGCCACAGCAGAAGCGUUCGCGUCGCAGCCCCUGUCAGAUUCUGGUGUAUCUGCGAAUUCUGCUGUAUAUCUC [A28G A56U] | 0.34 |
| UAACAGGGGGCCACAGCAGAAGCGUUCGCGUCGCAGCCCCUGUCAGGUUCUGGUGAAUCUGCGAAUUCUGCUGUAUAUCUC [A28G A47G] | 0.52 |
| UAACAGGGGGCCACAGCAGAAGCGUUCGCGUCGCAGCCCCUGUCAGUUUCUGGUGAAUCUGCGAAUUCUGCUGUAUAUCUC [A28G A47U] | 0.25 |

| Variant | self-cleavage |
| --- | --- |
| UAACAGGGGGCCACAGCAGAAGCGUUCGCGUCGCAGCCCCUGUCAGCUUCUGGUGAAUCUGCGAAUUCUGCUGUAUAUCUC [A28G A47C] | 0.23 |
| UAACAGGGGGCCACAGCAGAAGCGUUCCCGUCGCAGCCCCUGUCAGAUUCUGGUGAAUCUGCGAAUUCUGCUGUAAAUCUC [A28C U76A] | 0.61 |
| UAACAGGGGGCCACAGCAGAAGCGUUCCCGUCGCAGCCCCUGUCAGAUUCUGGUGAAUCUGCGAAUUCUGCUGUACAUCUC [A28C U76C] | 0.53 |
| UAACAGGGGGCCACAGCAGAAGCGUUCGCGUCGCAGCCCCUGUCAGAUUCUGGUGAGUCUGCGAAUUCUGCUGUAUAUCUC [A28G A57G] | 0.51 |
| UAACAGGGGGCCACAGCAGAAGCGUUCGCGUCGCAGCCCCUGUCAGAUUCUGGUGAUUCUGCGAAUUCUGCUGUAUAUCUC [A28G A57U] | 0.24 |
| UAACAGGGGGCCACAGCAGAAGCGUUCGCGUCGCAGCCCCUGUCAGAUUCUGGUGACUCUGCGAAUUCUGCUGUAUAUCUC [A28G A57C] | 0.16 |
| UAACAGGGGGCCACAGCAGAAGCGUUCCCGUCGCAGCCCCUGUCAGAUUCUGGUGAAUCUGCGAAUUCUGCUGAAUAUCUC [A28C U74A] | 0.9 |
| UAACAGGGGGCCACAGCAGAAGCGUUCCCGUCGCAGCCCCUGUCAGAUUCUGGUGAAUCUGCGAAUUCUGCUGCAUAUCUC [A28C U74C] | 0.7 |
| UAACAGGGGGCCACAGCAGAAGCGUUCGCGUCGCAGCCCCUGUCAGAUUCUGGUGAAUCUGCGAAUUCUGCUGUUUAUCUC [A28G A75U] | 0.73 |
| UAACAGGGGGCCACAGCAGAAGCGUUCGCGUCGCAGCCCCUGUCAGAUUCUGGUGAAUCUGCGAAUUCUGCUGUGUAUCUC [A28G A75G] | 0.53 |
| UAACAGGGGGCCACAGCAGAAGCGUUCGCGUCGCAGCCCCUGUCAGAUUCUGGUGAAUCUGCGAAUUCUGCUGUAUAUCUC [A28G] | 0.67 |
| UAACAGGGGGCCACAGCAGAAGCGUUCCCGUCGCAGCCCCUGUCAGAUUCUGGUGAAUCUGCGAAUUCUGCUGUAUAUCAC [A28C U80A] | 0.53 |
| UAACAGGGGGCCACAGCAGAAGCGUUCGCGUCGCCGCCCCUGUCAGAUUCUGGUGAAUCUGCGAAUUCUGCUGUAUAUCUC [A28G A35C] | 0.53 |
| UAACAGGGGGCCACAGCAGAAGCGUUCGCGUCGCUGCCCCUGUCAGAUUCUGGUGAAUCUGCGAAUUCUGCUGUAUAUCUC [A28G A35U] | 0.27 |
| UAACAGGGGGCCACAGCAGAAGCGUUCGCGUCGCGGCCCCUGUCAGAUUCUGGUGAAUCUGCGAAUUCUGCUGUAUAUCUC [A28G A35G] | 1.18 |
| UAACAGGGGGCCACAGCAGAAGCGUUCCCGUCGCAGCCCCUGUCAGAUUCUGGUGAAUCUGCGAAUUCUGCUGUAUACCUC [A28C U78C] | 0.46 |
| UAACAGGGGGCCACAGCAGAAGCGUUCCCGUCGCAGCCCCUGUCAGAUUCUGGUGAAUCUGCGAAUUCUGCUGUAUAACUC [A28C U78A] | 0.64 |

From the RNAGym collection of RNA variant scans (doi:10.1093/nar/gkz1192)
